Results on 15 molecules are retold here after patent US20200054723A1 (ALLAKOS, published 2020).

B1: HEKA Fab fragment (Fab)
VH: EVQLVESGGGLVQPGGSLRLSCAASGFSLTIYGAHWVRQAPGKGLEWVGVIWAGGSTNYNSALMSRFTISKDNSKNTVYLQMNSLRAEDTAVYYCARDGSSPYYYSMEYWGQGTTVTVSS
light: EIVLTQSPATLSLSPGERATLSCSATSSVSYMHWFQQKPGQAPRLLIYSTSNLASGIPARFSGSGSGTDFTLTISSLEPEDFAVYYCQQRSSYPFTFGPGTKLDIKRTVAAPSVFIFPPSDEQLKSGTASVVCLLNNFYPREAKVQWKVDNALQSGNSQESVTEQDSKDSTYSLSSTLTLSKADYEKHKVYACEVTHQGLSSPVTKSFNRGEC
notes: Fab made by papain digestion
B2: HEKF Fab fragment (Fab)
VH: EVQLVESGGGLVQPGGSLRLSCAASGFSLTIYGAHWVRQAPGKGLEWVGVIWAGGSTNYNSALMSRFTISKDNSKNTVYLQMNSLRAEDTAVYYCARDGSSPYYYSMEYWGQGTTVTVSS
light: EIVLTQSPATLSLSPGERATLSCSATSSVSYMHWFQQKPGQAPRLLIYSTSNLASGIPARFSGSGSGTDYTLTISSLEPEDFAVYYCQQRSSYPFTFGPGTKLDIKRTVAAPSVFIFPPSDEQLKSGTASVVCLLNNFYPREAKVQWKVDNALQSGNSQESVTEQDSKDSTYSLSSTLTLSKADYEKHKVYACEVTHQGLSSPVTKSFNRGEC
notes: Fab made by papain digestion
B3: mouse 2E2 Fab fragment (Fab)
VH: QVQLKESGPGLVAPSQSLSITCTVSGFSLTIYGAHWVRQPPGKGLEWLGVIWAGGSTNYNSALMSRLSISKDNSKSQVFLKINSLQTDDTALYYCARDGSSPYYYSMEYWGQGTSVTVSS
light: QIILTQSPAIMSASPGEKVSITCSATSSVSYMHWFQQKPGTSPKLWIYSTSNLASGVPVRFSGSGSGTSYSLTISRMEAEDAATYYCQQRSSYPFTFGSGTKLEIKADAAPTVSIFPPSSEQLTSGGASVVCFLNNFYPKDINVKWKIDGSERQNGVLNSWTDQDSKDSTYSMSSTLTLTKDEYERHNSYTCEATHKTSTSPIVKSFNRNEC
notes: Fab made by papain digestion of the murine IgG1; also called murine 2E2 Fab
B4: chimeric 2E2 Fab fragment (Fab)
VH: QVQLKESGPGLVAPSQSLSITCTVSGFSLTIYGAHWVRQPPGKGLEWLGVIWAGGSTNYNSALMSRLSISKDNSKSQVFLKINSLQTDDTALYYCARDGSSPYYYSMEYWGQGTSVTVSS
light: QIILTQSPAIMSASPGEKVSITCSATSSVSYMHWFQQKPGTSPKLWIYSTSNLASGVPVRFSGSGSGTSYSLTISRMEAEDAATYYCQQRSSYPFTFGSGTKLEIKRTVAAPSVFIFPPSDEQLKSGTASVVCLLNNFYPREAKVQWKVDNALQSGNSQESVTEQDSKDSTYSLSSTLTLSKADYEKHKVYACEVTHQGLSSPVTKSFNRGEC
notes: Fab made by papain digestion of the human IgG1 chimeric antibody
B5: HEKAmut IgG1 antibody (antibody, V domains shown)
VH: EVQLVESGGGLVQPGGSLRLSCAASGFSLTIYGAHWVRQAPGKGLEWVGVIWAGGSTNYNSALMSRFTISKDNSKNTVYLQMNSLRAEDTAVYYCARDGSSPYYYSMEYWGQGTTVTVSS
VL: EIVLTQSPATLSLSPGERATLSCSATSSVSYMHWFQQKPGQAPRLLIYSTSNLASGIPARFSGSGSGTDFTLTISSLEPEDFAVYYCQQRSSYPYTFGPGTKLDIK
B6: HEKA IgG4 antibody (antibody)
heavy: not shown
light: EIVLTQSPATLSLSPGERATLSCSATSSVSYMHWFQQKPGQAPRLLIYSTSNLASGIPARFSGSGSGTDFTLTISSLEPEDFAVYYCQQRSSYPFTFGPGTKLDIKRTVAAPSVFIFPPSDEQLKSGTASVVCLLNNFYPREAKVQWKVDNALQSGNSQESVTEQDSKDSTYSLSSTLTLSKADYEKHKVYACEVTHQGLSSPVTKSFNRGEC
B7: chimeric 2E2 antibody (antibody, human IgG1, kappa)
heavy: not shown
light: QIILTQSPAIMSASPGEKVSITCSATSSVSYMHWFQQKPGTSPKLWIYSTSNLASGVPVRFSGSGSGTSYSLTISRMEAEDAATYYCQQRSSYPFTFGSGTKLEIKRTVAAPSVFIFPPSDEQLKSGTASVVCLLNNFYPREAKVQWKVDNALQSGNSQESVTEQDSKDSTYSLSSTLTLSKADYEKHKVYACEVTHQGLSSPVTKSFNRGEC
notes: human IgG1/kappa; also called ch2E2; ch2E2 purified
B8: cVHKB (antibody, human IgG1, V domains shown)
VH: QVQLKESGPGLVAPSQSLSITCTVSGFSLTIYGAHWVRQPPGKGLEWLGVIWAGGSTNYNSALMSRLSISKDNSKSQVFLKINSLQTDDTALYYCARDGSSPYYYSMEYWGQGTSVTVSS
VL: EIILTQSPATLSLSPGERATLSCSATSSVSYMHWFQQKPGQAPRLWIYSTSNLASGVPARFSGSGSGTDYTLTISSLEPEDFAVYYCQQRSSYPFTFGPGTKLDIK
notes: human IgG1/kappa
B9: HA2KB (antibody, human IgG1, V domains shown)
VH: QVQLQESGPGLVKPSETLSLTCTVSGGSISIYGAHWIRQPPGKGLEWIGVIWAGGSTNYNSALMSRVTISVDTSKNQFSLKLSSVTAADTAVYYCARDGSSPYYYSMEYWGQGTLVTVSS
VL: EIILTQSPATLSLSPGERATLSCSATSSVSYMHWFQQKPGQAPRLWIYSTSNLASGVPARFSGSGSGTDYTLTISSLEPEDFAVYYCQQRSSYPFTFGPGTKLDIK
notes: human IgG1/kappa
B10: HB2KA (antibody, human IgG1, V domains shown)
VH: QVQLQESGPGLVKPSETLSLTCTVSGFSLTIYGAHWVRQPPGKGLEWLGVIWAGGSTNYNSALMSRLSISKDNSKNQVSLKLSSVTAADTAVYYCARDGSSPYYYSMEYWGQGTLVTVSS
VL: EIVLTQSPATLSLSPGERATLSCSATSSVSYMHWFQQKPGQAPRLLIYSTSNLASGIPARFSGSGSGTDFTLTISSLEPEDFAVYYCQQRSSYPFTFGPGTKLDIK
notes: human IgG1/kappa
B11: HBcVK (antibody, human IgG1, V domains shown)
VH: EVQLVESGGGLVQPGGSLRLSCAVSGFSLTIYGAHWVRQAPGKGLEWLGVIWAGGSTNYNSALMSRLSISKDNSKNTVYLQMNSLRAEDTAVYYCARDGSSPYYYSMEYWGQGTTVTVSS
VL: QIILTQSPAIMSASPGEKVSITCSATSSVSYMHWFQQKPGTSPKLWIYSTSNLASGVPVRFSGSGSGTSYSLTISRMEAEDAATYYCQQRSSYPFTFGSGTKLEIK
notes: human IgG1/kappa
B12: HB2KC (antibody, human IgG1, V domains shown)
VH: QVQLQESGPGLVKPSETLSLTCTVSGFSLTIYGAHWVRQPPGKGLEWLGVIWAGGSTNYNSALMSRLSISKDNSKNQVSLKLSSVTAADTAVYYCARDGSSPYYYSMEYWGQGTLVTVSS
VL: EIILTQSPATLSLSPGERATLSCSATSSVSYMHWFQQKPGQAPRLLIYSTSNLASGIPARFSGSGSGTDFTLTISSLEPEDFAVYYCQQRSSYPFTFGPGTKLDIK
notes: human IgG1/kappa
B13: HB2KG (antibody, V domains shown)
VH: QVQLQESGPGLVKPSETLSLTCTVSGFSLTIYGAHWVRQPPGKGLEWLGVIWAGGSTNYNSALMSRLSISKDNSKNQVSLKLSSVTAADTAVYYCARDGSSPYYYSMEYWGQGTLVTVSS
VL: EIVLTQSPATLSLSPGERATLSCSATSSVSYMHWYQQKPGQAPRLLIYSTSNLASGIPARFSGSGSGTDFTLTISSLEPEDFAVYYCQQRSSYPFTFGPGTKLDIK
notes: human IgG1/kappa
B14: HAcVK (antibody, human IgG1, V domains shown)
VH: EVQLVESGGGLVQPGGSLRLSCAASGFSLTIYGAHWVRQAPGKGLEWVSVIWAGGSTNYNSALMSRFTISKDNSKNTVYLQMNSLRAEDTAVYYCARDGSSPYYYSMEYWGQGTTVTVSS
VL: QIILTQSPAIMSASPGEKVSITCSATSSVSYMHWFQQKPGTSPKLWIYSTSNLASGVPVRFSGSGSGTSYSLTISRMEAEDAATYYCQQRSSYPFTFGSGTKLEIK
notes: human IgG1/kappa
B15: HA2KFmut (antibody, human IgG1, V domains shown)
VH: QVQLQESGPGLVKPSETLSLTCTVSGGSISIYGAHWIRQPPGKGLEWIGVIWAGGSTNYNSALMSRVTISVDTSKNQFSLKLSSVTAADTAVYYCARDGSSPYYYSMEYWGQGTLVTVSS
VL: EIVLTQSPATLSLSPGERATLSCSATSSVSYMHWFQQKPGQAPRLLIYSTSNLASGIPARFSGSGSGTDYTLTISSLEPEDFAVYYCQQRSSYPYTFGPGTKLDIK
notes: human IgG1/kappa

Where “and” joins values, the source holds several entries; their conditions need not be identical. Equal entries are not always repeated.

T3 sequence (Q9NYZ4 17-363): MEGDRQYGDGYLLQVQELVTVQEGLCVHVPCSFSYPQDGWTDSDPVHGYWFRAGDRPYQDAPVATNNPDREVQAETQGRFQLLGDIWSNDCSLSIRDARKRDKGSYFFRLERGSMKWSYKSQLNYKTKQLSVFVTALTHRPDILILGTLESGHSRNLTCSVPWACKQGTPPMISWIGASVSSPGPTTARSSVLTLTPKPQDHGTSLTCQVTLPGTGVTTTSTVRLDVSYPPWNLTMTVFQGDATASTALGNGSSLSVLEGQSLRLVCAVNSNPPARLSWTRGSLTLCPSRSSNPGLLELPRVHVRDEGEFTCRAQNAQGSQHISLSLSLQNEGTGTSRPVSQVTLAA
Sequence of human Siglec-8 on human cells (eosinophils, mast cells) (Q9NYZ4 17-499): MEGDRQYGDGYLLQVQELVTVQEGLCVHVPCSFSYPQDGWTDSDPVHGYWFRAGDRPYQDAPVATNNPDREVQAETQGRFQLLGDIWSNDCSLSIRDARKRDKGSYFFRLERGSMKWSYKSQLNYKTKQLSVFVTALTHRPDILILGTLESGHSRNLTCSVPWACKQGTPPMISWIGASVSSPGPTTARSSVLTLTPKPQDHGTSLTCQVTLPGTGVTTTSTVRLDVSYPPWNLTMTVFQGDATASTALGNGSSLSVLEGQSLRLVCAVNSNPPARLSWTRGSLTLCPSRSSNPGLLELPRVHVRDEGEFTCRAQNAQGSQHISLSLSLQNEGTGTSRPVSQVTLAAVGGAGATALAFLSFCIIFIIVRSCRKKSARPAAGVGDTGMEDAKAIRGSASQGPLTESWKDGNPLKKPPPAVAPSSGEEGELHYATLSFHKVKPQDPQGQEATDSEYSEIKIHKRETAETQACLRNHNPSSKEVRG

For one experiment, the target named is T1, Siglec-8-Fc tagged protein (human Siglec-8 extracellular domain fused to an immunoglobulin Fc region) (human).
T1 construct: also called Siglec-8 Fc fusion protein
T1 sequence (chain, as listed by the source limits assumed): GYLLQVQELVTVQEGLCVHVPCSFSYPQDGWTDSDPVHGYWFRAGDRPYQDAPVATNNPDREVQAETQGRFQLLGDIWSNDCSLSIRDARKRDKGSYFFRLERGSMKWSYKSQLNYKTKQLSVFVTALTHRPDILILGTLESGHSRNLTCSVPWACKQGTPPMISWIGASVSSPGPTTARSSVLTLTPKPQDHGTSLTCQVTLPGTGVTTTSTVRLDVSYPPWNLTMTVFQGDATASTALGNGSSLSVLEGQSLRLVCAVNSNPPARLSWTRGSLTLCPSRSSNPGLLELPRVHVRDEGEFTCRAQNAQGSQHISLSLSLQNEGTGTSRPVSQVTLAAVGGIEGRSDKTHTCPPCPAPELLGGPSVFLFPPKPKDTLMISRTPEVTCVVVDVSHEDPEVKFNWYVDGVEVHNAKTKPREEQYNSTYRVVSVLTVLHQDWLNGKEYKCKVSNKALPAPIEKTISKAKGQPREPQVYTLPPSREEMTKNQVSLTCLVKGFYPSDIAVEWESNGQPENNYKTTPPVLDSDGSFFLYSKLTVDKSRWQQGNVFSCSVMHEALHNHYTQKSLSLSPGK
Nature of the experiment: BLI (Octet Red 384), Siglec-8-Fc on anti-human capture sensors, Fab in solution. On the procedure:
Antibody affinity determination was also carried out by bio-layer interferometry (ForteBio). Binding of mouse, chimeric and humanized anti-Siglec-8 antibody Fab fragments to human Siglec-8 protein was measured on a ForteBio Octet Red 384. The assay was conducted at 25° C., at an RPM of 1000 in assay buffer. […] Fab fragments (antibodies were digested with Thermo-Pierce immobilized papain per manufacturer's specifications) were diluted in assay buffer from 50 nM to 1.56 nM with 2× dilutions. The Siglec-8-Fc tagged protein was immobilized on Anti-Human-Capture sensors at 100 nM in assay buffer for 3 min to a change in nm of approximately 1.2. Two-minute associations were conducted, followed by 10-minute dissociations. Results were blanked with an empty reference AHC sensor, and analyzed in ForteBio analysis software with 1:1 global fit parameters.
Regarding B1, the Kd was 0.464 nM, the koff is 0.000482 s⁻¹ and the kon was 1.04e+06 M⁻¹ s⁻¹.

As for B2, the Kd turned out to be 0.592 nM, the koff is 0.000545 s⁻¹ and the kon was 920000 M⁻¹ s⁻¹.

B3 gave a Kd of 0.536 nM, a dissociation rate constant (koff) of 0.000612 s⁻¹ and a kon of 1.14e+06 M⁻¹ s⁻¹.

Regarding B4, the Kd was determined as 0.585 nM, the koff turned out to be 0.000556 s⁻¹ and the kon was determined as 951000 M⁻¹ s⁻¹.

A further experiment addresses human Siglec-8 on human cells (eosinophils, mast cells) (human, UniProt Q9NYZ4 17-499). Description: cell-based or functional assay.
Turning to B5, the “Mean EC50 (ng/ml) for eosinophil depletion” value was 43.3 ng/mL.

In the case of B6, the “Mean EC50 (ng/ml) for eosinophil depletion” value was determined as 3.9 ng/mL.

The target in another experiment is T2, Dimeric Siglec-8 (human Siglec-8 ECD protein) (human, UniProt Q9NYZ4 17-363).
T2 construct: extracellular domain; Analyte of the Biacore avidity assay
T2 sequence (Q9NYZ4 17-363): as the sequence (Q9NYZ4 17-363) above
Description: SPR (Biacore), antibody captured, dimeric Siglec-8 as analyte, 1:1 global fit (avidity). On the procedure: Antibody avidity determination was carried out by SPR analysis using a Biacore T200. Binding of human Siglec-8 ECD protein to mouse, chimeric and humanized anti-Siglec-8 antibodies was measured on a […]. The capture antibodies (goat-anti-human-Fc and goat-anti-mouse-Fc from Jackson Immunoresearch) were immobilized on a CM5 chip according to manufacturer's protocol (Biacore, GE). Flow-cell 1, 2 and 3 were immobilized with anti-human, and flow cell 4 with anti-mouse antibodies. The assay was conducted at 25° C., at a flow rate of […]. Assay buffer was 20 mM Tris-HCl pH 8.3, 150 mM Sodium Chloride, 0.05% Polysorbate 20, 10% glycerol, 0.1% BSA, made in ultrapure water. Dimeric Siglec-8 (impurities of monomeric and oligomeric Siglec-8 were removed by size-exclusion chromatography) was diluted in assay buffer from 15 nM to […] with 2× dilutions. Antibodies were captured to a change of approximately 120 RU. Six-minute high performance injections were conducted, followed by 120-minute dissociations. Flow cells were regenerated with 50 mM glycine pH 1.5. Results were double blanked with an empty reference cell and multiple assay buffer injections, and analyzed with 1:1 global fit parameters.
For B7, the Kd worked out at 0.016 nM, the koff is 1.32e-05 s⁻¹ and the kon was 851000 M⁻¹ s⁻¹.

Another experiment addresses T3, recombinant human Siglec-8 extracellular domain (ECD) (human, UniProt Q9NYZ4 17-363).
T3 construct: extracellular domain; also called Siglec-8 ECD; full Siglec-8 ECD
Nature of the experiment: ELISA, coated Siglec-8 ECD.
Take B8: the EC50 was 0.027 nM.

For the molecule B9, the EC50 is 124 nM.

Regarding B10, the EC50 is 0.051 nM.

Consider B11, for which the EC50 was 0.066 nM.

Take B12: the EC50 worked out at 0.101 nM.

As to B13, the EC50 came to 0.227 nM.

For B14, the half-maximal effective concentration (EC50) was determined as 0.067 nM.

Regarding B15, the EC50 stood at 31.6 nM.

Turning to B7, the EC50 is 0.062 nM and 0.044 nM and 0.043 nM.
